The source of these data is patent US20260184766A1 (APPLIED BIOMEDICAL SCIENCE INSTITUTE, published 2026).

Substitutions are numbered along the chain they refer to.

B1: R2C3 (R5C1) chimeric bovine-human IgG1 (ultralong CDR3) (antibody)
VH: QVQLRESGPSLVKPSQTLSLTCTASGFSLSDKPVGWVRQAPGKPLEWLGSIDTAENTGYNPGLKSRLSITKDNSKSQVSLSLSSVTTEDSATYYCATVHQKTRKEKSCPDGYLYSSNTGRGYDCGVWTCRRVGGEFCSATGDWTSPSEEDFYEFYVDTWGQGAPVTVSS
VL: QAVLNQPSSVSGSLGQRVSITCSGSSSNVGNGYVSWYQLIPGSAPRTLIYGDTSRASGVPDRFSGSRSGNTATLTISSLQAEDEADYFCASAEDSSSNAVFGSGTTLTVL
notes: also called SA-R2C3
B2: R2F12 chimeric bovine-human IgG1 (ultralong CDR3) (antibody)
VH: QVQLRESGPSLVKPSQTLSLTCTVSGFSLSDKAVGWVRRAPGKALEWLGSIDTGGMTGYNPGLKSRLSITKDNSKSQVSLSVNSVTTEDSATYYCATVDQKTKNACPDDFDYRCSCIGGCGCARKGCVGPLCCRSDLGGYLTDSPAYIYEWYIDLWGQGLLVTVSS
VL: B1 VL
notes: also called RR2F12
B3: R2B1 chimeric bovine-human IgG1 (antibody, V domains shown)
VH: QVQLRESGPSLVKPSQTLSLTCTVSGFSLSDNNVGWVRQAPGKALEWLGVMHNDGNKGYNPALKSRLSITKDSSKSQVSLSLSSVTSEDTATYYCTRDNARCDSWTYDSCDTWYRNSWHVDAWGQGLLVTVSS
VL: B1 VL
B4: R2D6 chimeric bovine-human IgG1 (antibody, V domains shown)
VH: QVQLRESGPSLVKPSQTLSLTCTTSGFSLSSYAVGWVRQAPGKALEWVGDIDYVGNTDYNPALKSRLSITKDNSKSQVSLVVSSVTAEDAATYYCAKYSGAYAYAACNYYGWRCAWESYIDAWGQGLLVTVSS
VL: B1 VL
B5: RBD F4 chimeric bovine-human IgG1 (antibody, V domains shown)
VH: QVQLRESGPSLVKPSQTLSLTCTVSGFSLSSNGVVWVRQAPGKALEWLGDICSTGGTSFNPALKSRLSIAKDNSKSQVSLSVRSVTPEDTATYYCARSRGYDCYANVDALDYVDAWGQGLLVTVSS
VL: B1 VL
B6: RBD A2 chimeric bovine-human IgG1 (antibody, V domains shown)
VH: B5 VH with S15L, T17I
VL: B1 VL
B7: SR3A3 chimeric bovine-human IgG1 (ultralong CDR3) (antibody)
VH: QVQLRESGPSLVKPSQTLSLTCTISGFSLSSYAVLWVRQAPGKPLEWLGSIDTAENTGYNPGLKSRLSITKDNSKSQVSLSVSSVTTEDSATYYCATVHQKTRKEKNCPDGYIYSSNITSGFDCGVWICRRVGSAFCSRTGDYTSPTELDIYEFYVEGWGQGVPVTVSS
VL: B1 VL
B8: RBD C6 chimeric bovine-human IgG1 (antibody, V domains shown)
VH: B5 VH with K43R, A44P, T54N, K75E, S81T, N106Y, D108Y, Y112T
VL: B1 VL
B9: R2G3 chimeric bovine-human IgG1 (ultralong CDR3) (antibody)
VH: QVQLRESGPSLVKPSQTLSLTCAASGFSLSDKAVGWVRRAPGKALEWLGSIDTGGSTGYNPGLKSRLSITKDNSKSQVSLSISSVTSEDSATYYCATVHQKTAEGDKTCPDGYEHTCGCIGGCGCKRSACIGALCCQASLGGWLSDGETYTYEFHVDTWGQGLVVTVSS
VL: B1 VL
notes: also called 2G3 IgG; R2-G3 IgG

One test has as its target T1, SARS CoV-2 spike trimer protein from the parental Wuhan-Hu-1 isolate (recombinant stabilized extracellular … (SARS-CoV-2 (Wuhan-Hu-1))).
T1 construct: also called Spike protein
In words: ELISA, spike coated, chimeric IgG1. (ELISA stands for enzyme-linked immunosorbent assay.)
In general, EC50 refers to the concentration that produces a half-maximal response. Regarding B1, the EC50 came out at 0.39 nM.

Consider B2, for which the EC50 came out at 0.05 nM.

Take B3: the EC50 is 0.37 nM.

As to B4, the EC50 was 0.41 nM.

On to B5, for which the EC50 amounted to 0.03 nM.

Turning to B6, the EC50 worked out at 0.024 nM.

B7: the EC50 came to 0.037 nM.

Consider B8, for which the EC50 worked out at 0.03 nM.

The next test addresses T1, SARS CoV-2 spike trimer protein from …. Put plainly: ELISA on coated spike protein, anti-human Fc-HRP, OD450.
For orientation: EC50 (read off the curve) means the concentration at which the effect is half-maximal. Regarding B9, the “EC50 (read off the curve)” value is approximately 0.01 nM.

On to B2, for which the “EC50 (read off the curve)” value is approximately 0.02 nM.

The target is the same in a further test. Put plainly: ELISA on coated recombinant stabilized spike protein, panel WT, OD 450.
Consider B9, for which the “EC50 (read off the curve)” value is approximately 0.4 nM.

As to B1, the “EC50 (read off the curve)” value is approximately 0.3 nM.

Regarding B2, the concentration giving a half-maximal response (EC50 (read off the curve)) is approximately 0.3 nM.
